Measured values published in patent publication US9359408B2, “Fluorinated protein-based polymeric carriers” (New York University, priority 2007, dated 2016).
Entries after “also recorded” stand apart in the source; their conditions may differ.

Legend:
[1] = Inverse temperature transition (Tt) by UV/vis absorbance at 350 nm; type: physicochemical; conditions: 4 μM protein in 10 mM phosphate buffer, pH 8.0, heated 10 to 65° C.
Procedure: UV/Vis Spectroscopy. UV/vis spectroscopy was performed on a Cary 100 UV/vis spectrometer (Agilent) to determine the inverse temperature transition (Tt) of 4 μM protein in 10 mM phosphate buffer, pH 8.0. The absorbance at 350 nm was measured as each protein sample was heated from 10 to 65° C., at a heating rate of 0.5° C./min.
Temperature-Dependent Supramolecular Assembly. The effect of temperature on the supramolecular assembly of the proteins was examined via absorption at 350 nm. The inverse temperature transition (Tt) was determined via temperature-dependent absorption (FIG. 3, insets). The Tt values for all fluorinated block polymers were different, affirming the significance of block orientation and number. […] In comparison to the wt proteins, fluorination appeared to depress the Tt of CE protein from 36 to 28° C.

[2] = Microrheology of protein solutions (bead tracking, G′/G″); type: physicochemical
Procedure: Microrheology. To assess the mechanical properties of all proteins, microrheology was performed using an inverted Leica DM-138 IRB microscope with a 20× objective lens at 22 and 42° C., maintained by a Lincum temperature-controlled cell. […] A total of 2 μL of 2 wt % fluorescent-amidated polystyrene beads (1.0 μm) was added to 10 μL of protein solution. Deionized water, 2 wt % beads, was measured as a control. Brownian motion of the beads was observed by Peltier-cooled video camera (QiCam) and digitally recorded. Mean square displacement (MSD) measurements of the beads were determined by IDL software (Research Systems, Inc.). Using the comprehensive Stokes-Einstein equation, the elastic modulus (G′) and viscous modulus (G″) were determined as a function of angular frequency (ω).
Mechanical Properties. Bulk rheological properties of the protein polymers were evaluated by microrheology (FIG. 4).
Upon fluorination, more depressed concentration-dependent percolation points for the protein polymers were observed. […] Two types of modifications to the rheological behavior are observed from EC and CE sets of constructs.

Molecule	inverse temperature transition (Tt) [1]	rheological character ([2]; 1.25 mg mL^−1, 22° C.)	rheological character ([2]; 2.5 mg mL^−1, 22° C.)	rheological character ([2]; 2.5 mg mL^−1, 42° C.)	rheological character ([2]; 1.25 mg mL^−1, 42° C.)	rheological character ([2]; up to 10 mg mL^−1)	rheological character ([2]; 10 mg mL^−1)	rheological character ([2]; concentrations below 2.5 mg mL^−1)
pFF-EC: Elastin-COMPcc diblock protein polymer with phenylalanine residues replaced by p-fluorophenylalanine (SEQ ID NO: 15) (protein, Phe replaced by p-fluorophenylalanine) MRGSHHHHHHGSKPIAASAVPGVGVPGVGVPGFGVPGVGVPGVGVPGVGVPGVGVPGFGVPGVGVPGVGVPGVGVPGVGVPGFGVPGVGVPGVGVPGVGVPGVGVPGFGVPGVGVPGVGVPGVGVPGVGVPGFGVPGVGVPGVGVPLEGSELAATATATATATATAACGDLAPQMLRELQETNAALQDVRELLRQQVKEITFLKNTVMESDASGLQAATATATATATATAVDLQPS	25 °C	viscoelastic behavior	viscoelastic behavior	more elastic character				
pFF-CE: COMPcc-Elastin diblock protein polymer with phenylalanine residues replaced by p-fluorophenylalanine (SEQ ID NO: 23) (protein, Phe replaced by p-fluorophenylalanine) MRGSHHHHHHGSACELAATATATATATATAACGDLAPQMLRELQETNAALQDVRELLRQQVKEITFLKNTVMESDASGLQAATATATATATATAVDKPIAASAVPGVGVPGVGVPGFGVPGVGVPGVGVPGVGVPGVGVPGFGVPGVGVPGVGVPGVGVPGVGVPGFGVPGVGVPGVGVPGVGVPGVGVPGFGVPGVGVPGVGVPGVGVPGVGVPGFGVPGVGVPGVGVPLEGSGTGAKLN	28 °C	viscous/viscoelastic	viscous/viscoelastic	elastic behavior; also recorded: dominant elastic modulus				
pFF-ECE: Elastin-COMPcc-Elastin triblock protein polymer with phenylalanine residues replaced by p-fluorophenylalanine (SEQ ID NO: 17) (protein, Phe replaced by p-fluorophenylalanine) MRGSHHHHHHGSKPIAASAVPGVGVPGVGVPGFGVPGVGVPGVGVPGVGVPGVGVPGFGVPGVGVPGVGVPGVGVPGVGVPGFGVPGVGVPGVGVPGVGVPGVGVPGFGVPGVGVPGVGVPGVGVPGVGVPGFGVPGVGVPGVGVPLEGSELAATATATATATATAACGDLAPQMLRELQETNAALQDVRELLRQQVKEITFLKNTVMESDASGLQAATATATATATATAVDKPIAASAVPGVGVPGVGVPGFGVPGVGVPGVGVPGVGVPGVGVPGFGVPGVGVPGVGVPGVGVPGVGVPGFGVPGVGVPGVGVPGVGVPGVGVPGFGVPGVGVPGVGVPGVGVPGVGVPGFGVPGVGVPGVGVPLEGSGTGAKLN	32 °C				elastic network formation			
wt-CE: non-fluorinated COMPcc-Elastin block polymer (SEQ ID NO: 16) (protein) MRGSHHHHHHGSACELAATATATATATATAACGDLAPQMLRELQETNAALQDVRELLRQQVKEITFLKNTVMESDASGLQAATATATATATATAVDKPIAASAVPGVGVPGVGVPGFGVPGVGVPGVGVPGVGVPGVGVPGFGVPGVGVPGVGVPGVGVPGVGVPGFGVPGVGVPGVGVPGVGVPGVGVPGFGVPGVGVPGVGVPGVGVPGVGVPGFGVPGVGVPGVGVPLEGSGTGAKL	36 °C	viscous/viscoelastic	viscous/viscoelastic	viscoelastic character		predominantly viscous		
wt-EC: non-fluorinated Elastin-COMPcc block polymer (SEQ ID NO: 15) (protein) MRGSHHHHHHGSKPIAASAVPGVGVPGVGVPGFGVPGVGVPGVGVPGVGVPGVGVPGFGVPGVGVPGVGVPGVGVPGVGVPGFGVPGVGVPGVGVPGVGVPGVGVPGFGVPGVGVPGVGVPGVGVPGVGVPGFGVPGVGVPGVGVPLEGSELAATATATATATATAACGDLAPQMLRELQETNAALQDVRELLRQQVKEITFLKNTVMESDASGLQAATATATATATATAVDLQPS		predominantly viscous		more elastic character			elastic network	predominantly viscous
wt-ECE: non-fluorinated Elastin-COMPcc-Elastin block polymer (SEQ ID NO: 17) (protein) MRGSHHHHHHGSKPIAASAVPGVGVPGVGVPGFGVPGVGVPGVGVPGVGVPGVGVPGFGVPGVGVPGVGVPGVGVPGVGVPGFGVPGVGVPGVGVPGVGVPGVGVPGFGVPGVGVPGVGVPGVGVPGVGVPGFGVPGVGVPGVGVPLEGSELAATATATATATATAACGDLAPQMLRELQETNAALQDVRELLRQQVKEITFLKNTVMESDASGLQAATATATATATATAVDKPIAASAVPGVGVPGVGVPGFGVPGVGVPGVGVPGVGVPGVGVPGFGVPGVGVPGVGVPGVGVPGVGVPGFGVPGVGVPGVGVPGVGVPGVGVPGFGVPGVGVPGVGVPGVGVPGVGVPGFGVPGVGVPGVGVPLEGSGTGAKLN					completely viscous	viscoelastic		
